Measured values taken from patent US20200392227A1 (LYVGEN BIOPHARMA, published 2020).
Read-outs that look alike come from different tables or passages of the source.

What was measured:
Experiment in all cases: BLI
[1] = target: T1, human FcRI protein (MednaBio, E1031) (human, UniProt P12314 16-288, limits assumed)
T1 construct: Bought; loaded on anti-penta-HIS biosensors; also called FcγRI

[2] = target: T2, human FcRIIA protein (MednaBio, E1033) (human, UniProt P12318 34-218, limits assumed)
T2 construct: Bought; also called FcγRIIA
T2 sequence (looked up): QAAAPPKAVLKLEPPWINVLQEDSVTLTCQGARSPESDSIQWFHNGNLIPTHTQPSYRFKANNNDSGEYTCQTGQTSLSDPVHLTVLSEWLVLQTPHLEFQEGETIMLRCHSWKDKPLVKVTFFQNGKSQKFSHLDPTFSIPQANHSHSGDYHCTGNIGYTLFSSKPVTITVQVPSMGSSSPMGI

[3] = target: T3, human FcRIIB/C protein (MednaBio, E1034) (human, UniProt P31994 43-217, limits assumed)
T3 construct: Bought as FcRIIB/C; also called FcγRIIB; CD32B
T3 sequence (looked up): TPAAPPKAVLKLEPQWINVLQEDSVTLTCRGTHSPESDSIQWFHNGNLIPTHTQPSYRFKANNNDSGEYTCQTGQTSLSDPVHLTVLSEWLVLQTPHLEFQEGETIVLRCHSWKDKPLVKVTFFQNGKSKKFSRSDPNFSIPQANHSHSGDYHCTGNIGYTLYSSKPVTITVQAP

[4] = target: T4, human FcRIIIA-V158 protein (MednaBio, E1035) (human, UniProt P08637 17-208)
T4 construct: Bought; also called FcγRIIIA(V); FcgRIIIA(V)

[5] = target: T5, human FcRn protein (MednaBio, E1032) (human, UniProt P55899 24-297; P61769 21-119)
T5 construct: Bought; assays at pH 6

[6] = target: T1, human FcRI protein (MednaBio, E1031); remark: listed apart in the source
Procedure, shortened: (§1)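 Binding was measured by biolayer interferometry on an Octet Red96 System, with commercial human Fc receptor proteins loaded at 20 μg/mL onto anti-penta-HIS biosensors. Sensors were dipped into an 8-point 1:3 dilution series of test IgG starting at 300 nM in PBS with 0.1% BSA and 0.02% Tween-20. Fcγ receptor assays ran at pH 7.2 and FcRn assays at pH 6. Kd, kon and koff came from global fitting to a 1:1 binding model.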

[7] = target: T2, human FcRIIA protein (MednaBio, E1033); remark: listed apart in the source
Procedure, shortened: as §1

[8] = target: T3, human FcRIIB/C protein (MednaBio, E1034); remark: listed apart in the source
Procedure, shortened: as §1

[9] = target: T4, human FcRIIIA-V158 protein (MednaBio, …); remark: listed apart in the source
Procedure, shortened: as §1

[10] = target: T5, human FcRn protein (MednaBio, E1032); remark: listed apart in the source
Procedure, shortened: as §1

[11] = target: T1, human FcRI protein (MednaBio, E1031); remark: listed apart in the source
Procedure, shortened: as §1

[12] = target: T2, human FcRIIA protein (MednaBio, E1033); remark: listed apart in the source
Procedure, shortened: as §1

[13] = target: T3, human FcRIIB/C protein (MednaBio, E1034); remark: listed apart in the source
Procedure, shortened: as §1

[14] = target: T4, human FcRIIIA-V158 protein (MednaBio, …); remark: listed apart in the source
Procedure, shortened: as §1

[15] = target: T5, human FcRn protein (MednaBio, E1032); remark: listed apart in the source
Procedure, shortened: as §1

[16] = target: T4, human FcRIIIA-V158 protein (MednaBio, …); remark: listed apart in the source
Procedure, shortened: as §1

T4 sequence (P08637 17-208 F176V): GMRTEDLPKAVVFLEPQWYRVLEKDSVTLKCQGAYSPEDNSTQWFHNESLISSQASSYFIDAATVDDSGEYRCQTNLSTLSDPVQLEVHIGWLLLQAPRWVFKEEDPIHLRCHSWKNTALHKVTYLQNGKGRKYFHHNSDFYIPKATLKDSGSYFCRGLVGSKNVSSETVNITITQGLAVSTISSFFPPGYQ
T5 sequence (P55899 24-297 limits assumed, form in doubt, chain 1 of 2): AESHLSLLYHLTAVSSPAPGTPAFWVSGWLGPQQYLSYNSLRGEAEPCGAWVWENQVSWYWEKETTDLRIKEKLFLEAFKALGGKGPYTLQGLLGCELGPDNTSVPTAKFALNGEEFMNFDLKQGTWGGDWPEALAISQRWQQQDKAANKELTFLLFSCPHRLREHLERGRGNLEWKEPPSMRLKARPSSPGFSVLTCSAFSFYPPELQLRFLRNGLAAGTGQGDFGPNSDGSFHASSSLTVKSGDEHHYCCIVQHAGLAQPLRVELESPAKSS
T5 sequence (P61769 21-119 limits assumed, form in doubt, chain 2 of 2): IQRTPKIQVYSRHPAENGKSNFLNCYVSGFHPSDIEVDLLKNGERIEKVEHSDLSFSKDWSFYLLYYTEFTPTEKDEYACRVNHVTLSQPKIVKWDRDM
T1 sequence (P12314 16-288 limits assumed): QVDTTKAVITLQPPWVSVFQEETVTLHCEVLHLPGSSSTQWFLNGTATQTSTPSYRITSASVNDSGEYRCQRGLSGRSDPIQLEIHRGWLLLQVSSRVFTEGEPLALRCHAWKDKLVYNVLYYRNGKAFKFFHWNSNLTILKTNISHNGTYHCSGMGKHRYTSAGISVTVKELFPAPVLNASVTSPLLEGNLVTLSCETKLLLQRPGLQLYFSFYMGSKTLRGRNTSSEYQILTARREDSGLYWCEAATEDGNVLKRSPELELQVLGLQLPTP

B1: wild-type human IgG1 control (antibody)
heavy: not shown
light: SYELTQPPSVSVSPGQTASITCSGDNIGDQYAHWYQQKPGQSPVLVIYQDKNRPSGIPERFSGSNSGNTATLTISGTQAMDEADYYCATYTGFGSLAVFGGGTKLTVLGQPKAAPSVTLFPPSSEELQANKATLVCLISDFYPGAVTVAWKADSSPVKAGVETTTPSKQSNNKYAASSYLSLTPEQWKSHRSYSCQVTHEGSTVEKTVAPTECS
notes: Control IgG
[1]
  Kd: 5.6 nM
  koff: 0.0012 s⁻¹
  kon: 220000 M⁻¹ s⁻¹
[2]
  Kd: 56 nM
  koff: 0.032 s⁻¹
  kon: 570000 M⁻¹ s⁻¹
[3]
  Kd: 130 nM
  koff: 0.016 s⁻¹
  kon: 120000 M⁻¹ s⁻¹
[4]
  Kd: 60 nM
  koff: 0.027 s⁻¹
  kon: 450000 M⁻¹ s⁻¹
[5]
  Kd: 16 nM
  koff: 0.008 s⁻¹
  kon: 480000 M⁻¹ s⁻¹
[6]
  Kd: 5.6 nM
  koff: 0.0012 s⁻¹
  kon: 220000 M⁻¹ s⁻¹
[7]
  Kd: 56 nM
  koff: 0.032 s⁻¹
  kon: 570000 M⁻¹ s⁻¹
[8]
  Kd: 130 nM
  koff: 0.016 s⁻¹
  kon: 120000 M⁻¹ s⁻¹
[9]
  Kd: 60 nM
  koff: 0.027 s⁻¹
  kon: 450000 M⁻¹ s⁻¹
[10]
  Kd: 16 nM
  koff: 0.008 s⁻¹
  kon: 480000 M⁻¹ s⁻¹
[11]
  Kd: 5.6 nM
  koff: 0.0012 s⁻¹
  kon: 220000 M⁻¹ s⁻¹
[12]
  Kd: 56 nM
  koff: 0.032 s⁻¹
  kon: 570000 M⁻¹ s⁻¹
[13]
  Kd: 130 nM
  koff: 0.016 s⁻¹
  kon: 120000 M⁻¹ s⁻¹
[14]
  Kd: 60 nM
  koff: 0.027 s⁻¹
  kon: 450000 M⁻¹ s⁻¹
[15]
  Kd: 16 nM
  koff: 0.008 s⁻¹
  kon: 480000 M⁻¹ s⁻¹
[16]
  Kd: 60 nM
  koff: 0.027 s⁻¹
  kon: 450000 M⁻¹ s⁻¹

B2: wild-type human IgG4 control (antibody)
heavy: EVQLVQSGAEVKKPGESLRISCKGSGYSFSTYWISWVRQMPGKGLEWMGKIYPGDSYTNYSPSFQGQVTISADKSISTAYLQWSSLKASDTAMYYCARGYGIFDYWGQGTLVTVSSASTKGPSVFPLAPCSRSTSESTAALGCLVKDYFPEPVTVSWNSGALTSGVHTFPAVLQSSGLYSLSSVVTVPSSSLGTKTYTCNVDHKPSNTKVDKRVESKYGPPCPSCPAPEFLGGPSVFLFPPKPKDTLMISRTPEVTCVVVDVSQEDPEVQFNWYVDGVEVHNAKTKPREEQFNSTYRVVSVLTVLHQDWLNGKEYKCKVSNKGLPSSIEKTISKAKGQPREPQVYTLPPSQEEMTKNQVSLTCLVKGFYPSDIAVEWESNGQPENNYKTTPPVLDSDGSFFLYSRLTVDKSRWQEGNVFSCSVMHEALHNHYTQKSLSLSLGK
light: SYELTQPPSVSVSPGQTASITCSGDNIGDQYAHWYQQKPGQSPVLVIYQDKNRPSGIPERFSGSNSGNTATLTISGTQAMDEADYYCATYTGFGSLAVFGGGTKLTVLGQPKAAPSVTLFPPSSEELQANKATLVCLISDFYPGAVTVAWKADSSPVKAGVETTTPSKQSNNKYAASSYLSLTPEQWKSHRSYSCQVTHEGSTVEKTVAPTECS
notes: Control IgG
[1]
  Kd: 4.8 nM
  koff: 0.0017 s⁻¹
  kon: 360000 M⁻¹ s⁻¹
[2]
  Kd: 400 nM
  koff: 0.055 s⁻¹
  kon: 140000 M⁻¹ s⁻¹
[3]
  Kd: 400 nM
  koff: 0.05 s⁻¹
  kon: 140000 M⁻¹ s⁻¹
[4]
  Kd: 550 nM
  koff: 0.092 s⁻¹
  kon: 170000 M⁻¹ s⁻¹
[5]
  Kd: 18 nM
  koff: 0.012 s⁻¹
  kon: 640000 M⁻¹ s⁻¹
[6]
  Kd: 4.8 nM
  koff: 0.0017 s⁻¹
  kon: 360000 M⁻¹ s⁻¹
[7]
  Kd: 400 nM
  koff: 0.055 s⁻¹
  kon: 140000 M⁻¹ s⁻¹
[8]
  Kd: 400 nM
  koff: 0.05 s⁻¹
  kon: 140000 M⁻¹ s⁻¹
[9]
  Kd: 550 nM
  koff: 0.092 s⁻¹
  kon: 170000 M⁻¹ s⁻¹
[10]
  Kd: 18 nM
  koff: 0.012 s⁻¹
  kon: 640000 M⁻¹ s⁻¹
[11]
  Kd: 4.8 nM
  koff: 0.0017 s⁻¹
  kon: 360000 M⁻¹ s⁻¹
[12]
  Kd: 400 nM
  koff: 0.055 s⁻¹
  kon: 140000 M⁻¹ s⁻¹
[13]
  Kd: 400 nM
  koff: 0.05 s⁻¹
  kon: 140000 M⁻¹ s⁻¹
[14]
  Kd: 550 nM
  koff: 0.092 s⁻¹
  kon: 170000 M⁻¹ s⁻¹
[15]
  Kd: 18 nM
  koff: 0.012 s⁻¹
  kon: 640000 M⁻¹ s⁻¹
[16]
  Kd: 550 nM
  koff: 0.092 s⁻¹
  kon: 170000 M⁻¹ s⁻¹
